Six molecules from article PMC6561935, “Hsp90 middle domain phosphorylation initiates a complex conformational program to recruit the ATPase-stimulating cochaperone Aha1” (Nature Communications, 2019) can be followed below.

Several values for one entry are separate records, joined by “and”; a condition that tells them apart may be missing. Equal values may be shown once. Where only a bound is given, the exact number is not on record here.

B1: purified human Hsp90α-Y313E (natural protein)
chain: not shown
notes: Hsp90α (heat shock protein 90 alpha), human; 2H/13C Ile-labelled for NMR; also called Hsp90-Y313E; Y313E-Hsp90; source: purified
B2: Aha1-C (C-terminal domain of human Aha1) (domain or fragment, UniProt O95433 201-338, looked up)
chain: GVKIPTCKITLKETFLTSPEELYRVFTTQELVQAFTHAPATLEADRGGKFHMVDGNVSGEFTDLVPEKHIVMKWRFKSWPEGHFATITLTFIDKNGETELCMEGRGIPAPEEERTRQGWQRYYFEGIKQTFGYGARLF
notes: Aha1, human, C-terminal domain, amino acids 201-338; source: E. coli, purified
B3: purified Aha1-C (domain or fragment, human, UniProt O95433 201-338, looked up)
chain: B2 chain
notes: Aha1, human, C-terminal domain, amino acid 201-338; perdeuterated for NMR; source: purified
B4: human Aha1 C-terminal domain (domain or fragment, UniProt O95433 201-338, looked up)
chain: B2 chain
notes: Aha1, human, C-terminal domain (Aha1-C, amino acid 201-338); the ITC methods speak only of 'Aha1 constructs'; source: purified
B5: Aha1-N (N-terminal domain of human Aha1) (domain or fragment, UniProt O95433 1-162, looked up)
chain: MAKWGEGDPRWIVEERADATNVNNWHWTERDASNWSTDKLKTLFLAVQVQNEEGKCEVTEVSKLDGEASINNRKGKLIFFYEWSVKLNWTGTSKSGVQYKGHVEIPNLSDENSVDEVEISVSLAKDEPDTNLVALMKEEGVKLLREAMGIYISTLKTEFTQG
notes: Aha1, human, N-terminal domain, amino acids 1-162; source: E. coli, purified
B6: human Aha1 N-terminal domain (domain or fragment, UniProt O95433 1-162, looked up)
chain: B5 chain
notes: Aha1, human, N-terminal domain (Aha1-N, amino acid 1-162); the ITC methods speak only of 'Aha1 constructs'; source: purified

Series [1] concerns the molecule itself. As to the kind of experiment: cross-linking; purified Hsp90 (with or without 10 mM AMPPNP, 10 min on ice) mixed with equimolar Aha1-His, 30 min on ice; 1 mM BDP-NHP (lysine-lysine), 30 min at room temperature; 25 mM HEPES pH 7.3, 100 mM NaCl; LC-MS (ReACT, PRM).
For series [2], the target named is T1, Hsp90-Y313E (human, UniProt P07900 1-732, Y313E).
T1 construct: Heat shock protein 90 alpha, human, phosphomimetic mutant Y313E; also called Y313E-Hsp90; Hsp90α-Y313E; source: E. coli, purified
As to the kind of experiment: ITC; with 2 mM AMPPNP in cell and syringe; Hsp90 (30 µM) in the cell, Aha1 constructs (380-450 µM) in the syringe; 20 mM Tris pH 7.5, 100 mM NaCl, 0.5 mM EDTA, 5 mM MgSO4, 1 mM TCEP, 36 °C; three technical repeats. As to conditions: both partners purified.

The target in series [3] is T2, Human wild-type Hsp90 (Hsp90α) (human, UniProt P07900 1-732).
T2 construct: Heat shock protein 90 alpha, human; also called Hsp90-wt; WT
The description is as above. As to conditions: both partners purified.

In series [4] the target is T1, Hsp90-Y313E. Description: ITC; without AMPPNP; Hsp90 (30 µM) in the cell, Aha1 constructs (380-450 µM) in the syringe; 20 mM Tris pH 7.5, 100 mM NaCl, 0.5 mM EDTA, 5 mM MgSO4, 1 mM TCEP, 36 °C; three technical repeats. The settings on record: both partners purified.
Series [5] concerns the target B1. As to the kind of experiment: ITC; Supplementary Table 3, with 2 mM AMPPNP in cell and syringe: Hsp90 30 μM in the cell, Aha1 constructs 380-450 μM in the syringe; 36 °C; 20 mM Tris pH 7.5, 100 mM NaCl, 0.5 mM EDTA, 5 mM MgSO4, 1 mM TCEP. The settings on record: both partners purified.
The target of series [6] is T3, human Hsp90α Y313E (phosphomimetic mutant) (human, UniProt P07900 1-732, Y313E).
T3 construct: Hsp90α, human, with the phosphomimetic substitution Y313E (numbering based on human Hsp90α); also called Hsp90-Y313E; source: purified
As to the kind of experiment: ITC; PEAQ-ITC, 36 °C; Hsp90 in the cell (30 μM), Aha1 constructs in the syringe (380-450 μM); 20 mM Tris pH 7.5, 100 mM NaCl, 0.5 mM EDTA, 5 mM MgSO4, 1 mM TCEP; no AMPPNP; three technical repeats. As to conditions: both partners purified.

In series [7] the target is T3, human Hsp90α Y313E (phosphomimetic …). Description: ITC; PEAQ-ITC, 36 °C; Hsp90 in the cell (30 μM), Aha1 constructs in the syringe (380-450 μM); 20 mM Tris pH 7.5, 100 mM NaCl, 0.5 mM EDTA, 5 mM MgSO4, 1 mM TCEP; 2 mM AMPPNP in cell and syringe; three technical repeats. As to conditions: both partners purified.
Series [8] addresses T4, human Hsp90α, wild-type (human, UniProt P07900 1-732).
T4 construct: Hsp90α (heat shock protein 90 alpha), human; also called WT; wild-type Hsp90; source: purified
The description is as above. As to conditions: both partners purified.

Series [9] has as its target T2, Human wild-type Hsp90 (Hsp90α). Description: ITC; without AMPPNP; Hsp90 (30 µM) in the cell, Aha1 constructs (380-450 µM) in the syringe; 20 mM Tris pH 7.5, 100 mM NaCl, 0.5 mM EDTA, 5 mM MgSO4, 1 mM TCEP, 36 °C; three technical repeats. As to conditions: both partners purified.
Series [10] deals with T4, human Hsp90α, wild-type. Description: ITC; PEAQ-ITC, 36 °C; Hsp90 in the cell (30 μM), Aha1 constructs in the syringe (380-450 μM); 20 mM Tris pH 7.5, 100 mM NaCl, 0.5 mM EDTA, 5 mM MgSO4, 1 mM TCEP; no AMPPNP; three technical repeats. The settings on record: both partners purified.

Turning to B1, the binding result in [1] is on record as “binds”.

On to B2, for which the dissociation constant (Kd) with Hsp90-Y313E [2] turned out to be 2.3 µM; in series [3] it was 15.6 µM; in the series with Hsp90-Y313E [4], 5.5 µM.

Turning to B3, in series [5], the “fold reduction of Kd against wild-type Hsp90 (both with AMPPNP)” value is around 7 fold and the “fold reduction of Kd with AMPPNP against without AMPPNP” value is above 2 fold.

On to B4, for which the Kd in series [6] was 7.71 µM and 4.59 µM and 4.04 µM and 5.45 µM; in [7], 2.02 µM and 2.27 µM and 2.62 µM and 2.3 µM; with human Hsp90α, wild-type [8] it was 17 µM and 13.3 µM and 16.4 µM and 15.6 µM.

Turning to B5, the Kd is 8.9 µM with Hsp90-Y313E [2], 4.9 µM in [3], 11.2 µM with Hsp90-Y313E [4] and 6.8 µM in [9].

Regarding B6, the dissociation constant (Kd) was 11.6 µM and 12.2 µM and 9.96 µM and 11.2 µM in series [6]; 7.2 µM and 6.1 µM and 7.22 µM and 6.84 µM with human Hsp90α, wild-type [10]; 7.97 µM and 8.96 µM and 9.66 µM and 8.86 µM in [7]; 5.69 µM and 4.69 µM and 4.25 µM and 4.88 µM with human Hsp90α, wild-type [8].
